Values quoted from earlier work in patent US11376231B2, “Compositions of bioactive fulvate fractions and uses thereof” (OMNI BIOCEUTICAL INNOVATIONS, INC., priority 2016, dated 2022).
Where two headings read alike, the source gives them in different places.

System: chronic wounds
Set-up: key: N.S. = not statistically significant

B1: TGF-β2: transforming growth factor-β2 (protein, UniProt P61812 303-414, looked up)
Transforming growth factor …: ALDAAYCFRNVQDNCCLRPLYIDFKRDLGWKWIHEPKGYNANFCAGACPYLWSSDTQHSRVLSLYNTINPEASASPCCVSQDLEPLTILYYIGKTPKIEQLSNMIVKSCKCS
modifications: Transforming growth factor beta-2
Results (venous (36), 2.5 μg/cm^2 three times per week, Robson et al.): N.S.

B2: PDGF-BB: platelet-derived growth factor BB (protein, UniProt P01127 82-190, looked up)
Platelet-derived growth …: SLGSLTIAEPAMIAECKTRTEVFEISRRLIDRTNANFLVWPPCVEVQRCSGCCNNRNVQCRPTQVQLRPVQVRKIEIVRKKPIFKKATVTLEDHLACKCETVAAARPVT
modifications: homodimer
Results (pressure (20), 1, 10, and 100 μg/mL daily, Robson et al.): N.S. | Results (pressure (45), 1 and 3 μg/mL daily, Mustoe et al.): N.S.
